Source: PMC11243334, “Synthesis and Evaluation of the First ^68Ga-Labeled C-Terminal Hydroxamate-Derived Gastrin-Releasing Peptide Receptor-Targeted Tracers for Cancer Imaging with Positron Emission Tomography” (Molecules, 2024)
Where two headings read alike, the source gives them in different places.

Columns and labels:
[1] = Ex vivo biodistribution in PC-3 tumor-bearing mice; settings: male, mouse, iv, total radioactivity, mean ± SD, n = 4; for tissue uptake at 1 h: NOD.Cg-Rag1^tm1Mom Il2rg^tm1Wjl/SzJ (NRG); for tissue to tissue ratio at 1 h: NOD.Cg-Rag1tm1Mom Il2rgtm1Wjl/SzJ (NRG)
Method: Biodistribution studies were conducted for ^68Ga-labeled SB3, LW02075 and LW02050 in PC-3 tumor-bearing mice (n = 4).
(§1) Imaging and biodistribution studies were performed on male NOD.Cg-Rag1^tm1Mom Il2rg^tm1Wjl/SzJ (NRG) mice following previously published procedures. The experiments were conducted following the guidelines established by the Canadian Council on Animal Care and approved by Animal Ethics Committee of the University of British Columbia. The mice were sedated (2.5% isoflurane in oxygen) and injected with 5 × 10^6 PC-3 cells (100 µL; 1:1 PBS/Matrigel) subcutaneously behind the left shoulder. The tumor-bearing mice were used for PET/CT imaging and biodistribution studies when the tumor grew to 5–8 mm in diameter.
For biodistribution studies, the mice were injected with the radiotracer (~2–4 MBq), as described above. Blocking of [^68Ga]Ga-LW02075 and [^68Ga]Ga-LW02050 was conducted by co-injection with 100 μg nonradioactive Ga-LW02075 and Ga-LW02050, respectively, through a lateral caudal tail vein under anaesthesia. At 1 h post injection, the mice were sedated and euthanized by CO2 inhalation. Blood was collected via cardiac puncture, and organs/tissues of interest were collected, weighed, and counted on a Perkin Elmer (Waltham, MA, USA) Wizard2 2480 automatic gamma counter.

[2] = test system: PC-3 tumor xenografts; assay: PET/CT imaging in mice bearing PC-3 tumor xenografts; format: in vivo; settings: 1 h post injection, mice
Method: as §1
PET/CT imaging experiments were performed on a Siemens (Knoxville, TN, USA) Inveon micro PET/CT scanner. Each tumor-bearing mouse was injected with ~3–6 MBq of ^68Ga-labeled tracer through a lateral caudal tail vein under anaesthesia. At around 50 min post injection, a 10 min CT scan was obtained first for localization and attenuation correction after segmentation for reconstructing the PET image, followed by a 10 min static PET scan.

[3] = physchem; settings: n-octanol/DPBS, pH 7.4
Method: LogD7.4 values of [^68Ga]Ga-LW02075, [^68Ga]Ga-LW02050, and [^68Ga]Ga-SB3 were measured via the shake flask method. An aliquot of the ^68Ga-labeled tracer (~1.85 MBq) was added to a 15 mL falcon tube containing 3 mL of n-octanol and 3 mL of DPBS (pH 7.4) followed by 1 min of vortex (n = 3). After that, the mixture was centrifuged at 5000 rpm for 10 min, and samples of the n-octanol (1 mL) and buffer (1 mL) layers were collected and counted on a Perkin Elmer (Waltham, MA, USA) Wizard2 2480 automatic gamma counter. The LogD7.4 values of [^68Ga]Ga-LW02075, [^68Ga]Ga-LW02050, and [^68Ga]Ga-SB3 were calculated following the equation: LogD7.4 = log10[(counts in the n-octanol phase)/(counts in the buffer phase)].

**Q.** Which tissue uptake at 1 h ([1]; PC-3 tumor, 1 h blocked: co-injected with 100 µg nonradioactive Ga-complexed standard, read-out: PC-3 tumor uptake, blocked) does the source give for `CC(C)C[C@H](NC(=O)[C@H](Cc1c[nH]cn1)NC(=O)CNC(=O)[C@@H](NC(=O)[C@H](C)NC(=O)[C@H](Cc1c[nH]c2ccccc12)NC(=O)[C@H](CCC(N)=O)NC(=O)[C@@H](Cc1ccccc1)NC(=O)COCC(=O)Nc1ccc(CNC(=O)CN2CCN(CC(=O)O)CCN(CC(=O)O)CCN(CC(=O)O)CC2)cc1)C(C)C)C(=O)NO` [[^68Ga]Ga-LW02075, [^68Ga]Ga-DOTA-pABzA-DIG-D-Phe-Gln-Trp-Ala-Val-Gly-His-Leu-NHOH, metal not drawn] here?
**A.** 1.83 ± 0.22 %ID/g

**Q.** What about the tissue uptake at 1 h ([1]; PC-3 tumor, 1 h post injection, read-out: PC-3 tumor uptake) of the same compound?
**A.** 3.97 ± 1.71 %ID/g

**Q.** What about the tissue uptake at 1 h ([1]; adrenal glands, 1 h blocked: co-injected with 100 µg nonradioactive Ga-complexed standard, read-out: Adrenal glands uptake, blocked) of the same compound?
**A.** 1.02 ± 0.59 %ID/g

**Q.** And the tissue uptake at 1 h ([1]; adrenal glands, 1 h post injection, read-out: Adrenal glands uptake)?
**A.** 4.42 ± 2.41 %ID/g

**Q.** What about the tissue uptake at 1 h ([1]; blood, 1 h blocked: co-injected with 100 µg nonradioactive Ga-complexed standard, read-out: Blood uptake, blocked) of the same compound?
**A.** 1.15 ± 0.26 %ID/g

**Q.** And the tissue uptake at 1 h ([1]; blood, 1 h post injection, read-out: Blood uptake)?
**A.** 0.76 ± 0.41 %ID/g

**Q.** What about the tissue uptake at 1 h ([1]; bone, 1 h blocked: co-injected with 100 µg nonradioactive Ga-complexed standard, read-out: Bone uptake, blocked) of the same compound?
**A.** 0.21 ± 0.07 %ID/g

**Q.** And the tissue uptake at 1 h ([1]; bone, 1 h post injection, read-out: Bone uptake)?
**A.** 0.2 ± 0.2 %ID/g

**Q.** And the tissue uptake at 1 h ([1]; brain, 1 h blocked: co-injected with 100 µg nonradioactive Ga-complexed standard, read-out: Brain uptake, blocked)?
**A.** 0.03 ± 0.01 %ID/g

**Q.** And the tissue uptake at 1 h ([1]; brain, 1 h post injection, read-out: Brain uptake)?
**A.** 0.03 ± 0.01 %ID/g

**Q.** And the tissue uptake at 1 h ([1]; fat, 1 h blocked: co-injected with 100 µg nonradioactive Ga-complexed standard, read-out: Fat uptake, blocked)?
**A.** 0.12 ± 0.02 %ID/g

**Q.** And the tissue uptake at 1 h ([1]; fat, 1 h post injection, read-out: Fat uptake)?
**A.** 0.08 ± 0.05 %ID/g

**Q.** What about the tissue uptake at 1 h ([1]; heart, 1 h blocked: co-injected with 100 µg nonradioactive Ga-complexed standard, read-out: Heart uptake, blocked) of the same compound?
**A.** 0.34 ± 0.04 %ID/g

**Q.** What about the tissue uptake at 1 h ([1]; heart, 1 h post injection, read-out: Heart uptake) of the same compound?
**A.** 0.24 ± 0.13 %ID/g

**Q.** What about the tissue uptake at 1 h ([1]; kidneys, 1 h blocked: co-injected with 100 µg nonradioactive Ga-complexed standard, read-out: Kidneys uptake, blocked) of the same compound?
**A.** 4.98 ± 1.59 %ID/g

**Q.** And the tissue uptake at 1 h ([1]; kidneys, 1 h post injection, read-out: Kidneys uptake)?
**A.** 3.11 ± 1.18 %ID/g

**Q.** And the tissue uptake at 1 h ([1]; large intestine, 1 h blocked: co-injected with 100 µg nonradioactive Ga-complexed standard, read-out: Large intestine uptake, blocked)?
**A.** 0.4 ± 0.17 %ID/g

**Q.** What about the tissue uptake at 1 h ([1]; large intestine, 1 h post injection, read-out: Large intestine uptake) of the same compound?
**A.** 1.71 ± 0.47 %ID/g

**Q.** And the tissue uptake at 1 h ([1]; liver, 1 h blocked: co-injected with 100 µg nonradioactive Ga-complexed standard, read-out: Liver uptake, blocked)?
**A.** 5.92 ± 1.69 %ID/g

**Q.** And the tissue uptake at 1 h ([1]; liver, 1 h post injection, read-out: Liver uptake)?
**A.** 4.14 ± 1.5 %ID/g

**Q.** And the tissue uptake at 1 h ([1]; lungs, 1 h blocked: co-injected with 100 µg nonradioactive Ga-complexed standard, read-out: Lungs uptake, blocked)?
**A.** 0.94 ± 0.17 %ID/g

**Q.** And the tissue uptake at 1 h ([1]; lungs, 1 h post injection, read-out: Lungs uptake)?
**A.** 0.75 ± 0.41 %ID/g

**Q.** And the tissue uptake at 1 h ([1]; muscle, 1 h blocked: co-injected with 100 µg nonradioactive Ga-complexed standard, read-out: Muscle uptake, blocked)?
**A.** 0.27 ± 0.14 %ID/g

**Q.** And the tissue uptake at 1 h ([1]; muscle, 1 h post injection, read-out: Muscle uptake)?
**A.** 0.21 ± 0.18 %ID/g

**Q.** And the tissue uptake at 1 h ([1]; pancreas, 1 h blocked: co-injected with 100 µg nonradioactive Ga-complexed standard, read-out: Pancreas uptake, blocked)?
**A.** 1.55 ± 0.83 %ID/g

**Q.** What about the tissue uptake at 1 h ([1]; pancreas, 1 h post injection, read-out: Pancreas uptake) of the same compound?
**A.** 17.8 ± 5.24 %ID/g

**Q.** And the tissue uptake at 1 h ([1]; small intestine, 1 h blocked: co-injected with 100 µg nonradioactive Ga-complexed standard, read-out: Small intestine uptake, blocked)?
**A.** 5.62 ± 1.86 %ID/g

**Q.** What about the tissue uptake at 1 h ([1]; small intestine, 1 h post injection, read-out: Small intestine uptake) of the same compound?
**A.** 6.72 ± 1.94 %ID/g

**Q.** What about the tissue uptake at 1 h ([1]; spleen, 1 h blocked: co-injected with 100 µg nonradioactive Ga-complexed standard, read-out: Spleen uptake, blocked) of the same compound?
**A.** 0.35 ± 0.12 %ID/g

**Q.** What about the tissue uptake at 1 h ([1]; spleen, 1 h post injection, read-out: Spleen uptake) of the same compound?
**A.** 0.26 ± 0.13 %ID/g

**Q.** And the tissue uptake at 1 h ([1]; stomach, 1 h blocked: co-injected with 100 µg nonradioactive Ga-complexed standard, read-out: Stomach uptake, blocked)?
**A.** 0.73 ± 0.29 %ID/g

**Q.** What about the tissue uptake at 1 h ([1]; stomach, 1 h post injection, read-out: Stomach uptake) of the same compound?
**A.** 1.23 ± 0.22 %ID/g

**Q.** And the tissue uptake at 1 h ([1]; testes, 1 h blocked: co-injected with 100 µg nonradioactive Ga-complexed standard, read-out: Testes uptake, blocked)?
**A.** 0.3 ± 0.06 %ID/g

**Q.** And the tissue uptake at 1 h ([1]; testes, 1 h post injection, read-out: Testes uptake)?
**A.** 0.17 ± 0.1 %ID/g

**Q.** What about the tissue to tissue ratio at 1 h ([1]; tumor and bone, 1 h blocked: co-injected with 100 µg nonradioactive Ga-complexed standard, read-out: Tumor/bone uptake ratio, blocked) of the same compound?
**A.** 9.3 ± 2.39

**Q.** And the tissue to tissue ratio at 1 h ([1]; tumor and bone, 1 h post injection, read-out: Tumor/bone uptake ratio)?
**A.** 30.6 ± 18.9

**Q.** What about the tissue to tissue ratio at 1 h ([1]; tumor and kidney, 1 h blocked: co-injected with 100 µg nonradioactive Ga-complexed standard, read-out: Tumor/kidney uptake ratio, blocked) of the same compound?
**A.** 0.39 ± 0.09

**Q.** And the tissue to tissue ratio at 1 h ([1]; tumor and kidney, 1 h post injection, read-out: Tumor/kidney uptake ratio)?
**A.** 1.28 ± 0.33

**Q.** What about the tissue to tissue ratio at 1 h ([1]; tumor and muscle, 1 h blocked: co-injected with 100 µg nonradioactive Ga-complexed standard, read-out: Tumor/muscle uptake ratio, blocked) of the same compound?
**A.** 7.85 ± 3.13

**Q.** What about the tissue to tissue ratio at 1 h ([1]; tumor and muscle, 1 h post injection, read-out: Tumor/muscle uptake ratio) of the same compound?
**A.** 24.8 ± 9.99

**Q.** What about the tissue to tissue ratio at 1 h ([1]; tumor and pancreas, 1 h blocked: co-injected with 100 µg nonradioactive Ga-complexed standard, read-out: Tumor/pancreas uptake ratio, blocked) of the same compound?
**A.** 1.46 ± 0.76

**Q.** And the tissue to tissue ratio at 1 h ([1]; tumor and pancreas, 1 h post injection, read-out: Tumor/pancreas uptake ratio)?
**A.** 0.22 ± 0.05

**Q.** And the tissue to tissue ratio at 1 h ([1]; tumor and whole blood, 1 h blocked: co-injected with 100 µg nonradioactive Ga-complexed standard, read-out: Tumor/blood uptake ratio, blocked)?
**A.** 1.65 ± 0.4

**Q.** And the tissue to tissue ratio at 1 h ([1]; tumor and whole blood, 1 h post injection, read-out: Tumor/blood uptake ratio)?
**A.** 5.51 ± 1.49

**Q.** And the “Excretion pathway in PET images” value [2]?
**A.** excreted primarily through the renal pathway

**Q.** And the “Pancreas in PET images” value [2]?
**A.** high pancreas uptake

**Q.** And the logD [3]?
**A.** -2.09 ± 0.05
